Reference: the nanobody polyreactivity screen of Harvey et al. (2022)

Assay: yeast display, Sf9 membrane polyspecificity reagent, FACS + sequencing; frameworks hold sequencing errors
Method in brief: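 A nanobody's polyreactivity label depends on the gate it was sorted from. Yeast display cells were stained with 10% biotinylated, detergent-solubilized Sf9 membrane reagent for 1 hour at 4 °C, enriched on streptavidin microbeads and sorted by FACS. The low and high (top ~1%) gates were set on anti-HA fluorescence for expression and streptavidin fluorescence for reagent binding.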

Row | Sequence | polyreactivity (PSR sort gate)
1 | QVQLVESGGGLVQARGSLRLICAASGRTFEHNSMGWYRQAPGKERELVARITSGGRTYYADSVKGRFTISRDNAKNTVYLQMNSLKPEDTAVYYCATVGRGYDERHNYWGQGTQVTVSS | high polyreactivity
2 | QVQLVESGGGLVQARGSLRLICAASGSTFWYYAKGWYRQAPGKERELVAAITSGDSTYYADSVKGRFTISRDNAKNTVYLQMNSLKPEDTAVYYCAADLPWEDGYYYYSGYTEYDYWGQGTQVTVSS | low polyreactivity
3 | QVQLVESGGGLVQARGSLRLSCAASGFIFPSYAMGWYRQAPGKERELDAAITWNGGSTYYADSVKGRFTISRDNAKNTVYLQMNSLKPEDTAVYYCNKYYYYRDYGYWVQGTQVTVSS | high polyreactivity
4 | QVQLVESGGGLVQARGSLRLSCAASGGIFYRNAMGWYRQAPGKERELVAAITQSGGRTYYADSVKGRFTISRDNAKNTVYLQMNSLKPEDTADYYCAKSRYTPTGSLQLNYWGQGTQVTVSS | high polyreactivity
5 | QVQLVESGGGLVQARGSLRLSCAASGITFRYYAMGWYRQAPGKERELVASISWSGGSTYYADSVKGRFTISRDNAKNTVYLQMNSLKPEDTAVYYCAADILTFWYRYYYWGQGTQVTVSS | high polyreactivity
6 | QVQLVESGGGLVQARGSLRLSCAASGLTFITNTMGWYRQAPGKERELVAVISYSGTSTYYADSVKGRFTISRDYAKNTVYLQMNSLKPEDTAVYYWDASYLGSYRYSYYYWGQGTQVTVSS | high polyreactivity
7 | QVQLVESGGGLVQARGSLRLSCAASGLTFRWYSMGWYRQAPGKERELVAAISSGGRTYYADSVKGRFTISRDNAKNTVYLQMNSLKPEDTAVYYCSKRTLDYGFGSYGREYWGEGTQVTVSS | high polyreactivity
8 | QVQLVESGGGLVQARGSLRLSCAASGRIFPVNTMGWYRQAPGKERELVAAITSGGGTYYADSVKGRFTISRDNAKNTVYFQMNSLKPEDTAVYYWTAPEGRKPYDSWGQGTQVTVSS | low polyreactivity
9 | QVQLVESGGGLVQARGSLRLSCAASGRIFSKYAMGWYRQAPGKERELVAAISSSGVSTYYADSVKGRFTISRDNAKNTVYLQMNSLKPEDTAVYYCYKRTSPKRFDYWGQGTQVTVSS | high polyreactivity
10 | QVQLVESGGGLVQARGSLRLSCAASGRIFTTYAMGWYRQAPGKESELVAAISQTGGSTYYADSVKGRFTISRDNAKNTVYLKMNSLKPEDTAVYYCNAGPAGYYDDDYWGQGTQVTVSS | low polyreactivity
11 | QVQLVESGGGLVQARGSLRLSCAASGRILKRYAMGWYRQAPGKERELVAAISYGGGSTDYADSVKGRFTISRDNAKNTVYLQMNSLKPEDTAVYYCAAKVRYYLSLRGSTTRRDDYYWGQGTQVTVSS | low polyreactivity
12 | QVQLVESGGGLVQARGSLRLSCAASGSIFGSYAMGWYRQAPGKDSELVADISCGGSTNYADSVKGRFTISRDNAKNTVYLQMNSLKPDDTAVYYCNADDPAGYLYLWGSWLESDYWGQGTQVTVSS | low polyreactivity
13 | QVQLVESGGGLVQARGSLRLSCAASGSTFAYNAMGWYRKAPGKERELVADITSTGTSTYADSVKGRFTISRDNAKNTVYLQMNSLKPEDTAVYYCNADYDSTYVGYDYWGQGTQVTVSS | low polyreactivity
14 | QVQLVESGGGLVQARGSLRLSCAASGSTFDSNAMGCYRQAPGKERELVAAITRGGSTNYADSVKGRFTISRDNAKNTVYLQMNSLNPEDTAVYYCAAASETLGSATYGSGYDYWGQGTQVTVSS | low polyreactivity
15 | QVQLVESGGGLVQARGSLRLSCAASGSTFGRYAMGSYRQAPGIERELVAAISLGTTTNYADSVKGRFTISRDNAKNTVYLQMNSLKPEDTAVSYCAADQPSKRYYYWGQGTQVTVSS | low polyreactivity
16 | QVQLVESGGGLVQARGSLRLSCAASGSTFIPNTMGWSRQAPGKERELVAAISRRGGSKNYADSVKGRFTISRDNAKNTVYLQMNSLNPEDTAVYYCAAASPRRYRYDYWGQGTQVTVSS | high polyreactivity
17 | QVQLVESGGGLVQARGSLRLSCAASGSTFSVYAMGWYRQAPGKERELVAAITDVDNTYYADSVKGRFTISRDNAKNTVYLQRNSLKPEDTAVYYCDARYYQYYEYYHWGQGTQVTVSS | low polyreactivity
